Variants at the floor of the assay were thinned out.
B1: TPR 5TU (parent)
chain: GGAUCUUCUCGAUCUAACAAAAAAGACAAAUCUGCCACAAAGCUUGAGAGCAUCUUCGGAUGCAGAGGCGGCAGCCUUCGGUGGCGCGAUAGCGCCAACGUUCUCAACUAUGACACGCAAAACGCGUGCUCCGUUGAAUGGAGUUUAUCAUG

Variants of: B1
Assay: polymerase ribozyme fitness, log enrichment relative to wild type (log ratio); higher = more active; in vitro selection for triplet polymerase activity
Procedure, shortened: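 Only genotypes with ≥10 input reads and ≥1 read per output were kept after Illumina sequencing of input and output libraries. These libraries were PCR-built, transcribed mutants of each subunit of a heterodimeric triplet polymerase ribozyme, each put through one triplicate in vitro selection round with frozen incubation at −7 °C, gel excision of extended constructs, streptavidin-bead capture and RT-PCR. Fitness is a logarithmic ratio of genotype enrichment to wild-type enrichment, from inverse-variance-weighted replicate averages, with the logarithm in base 2.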

| Variant | polymerase ribozyme fitness (log ratio) |
| --- | --- |
| U45G A52U | -3.15 |
| U45G C57A C93A G124A | -3.64 |
| G46A G84A | -2.74 |
| U45C C93A | -3.52 |
| A47G A52U G68U C79A C93U C99A G141C A142G G143U | ≤ -4.2 |
| A47C U61A G140U U145G | ≤ -4.2 |
| A47U G48C G71C G94A C108G G124C G141A | ≤ -4.2 |
| U45G C54A U55A C85G G133U | ≤ -4.2 |
| G46C C76U | ≤ -4.2 |
| A47U C96A A97G A122C | -1.28 |
| G46A A49C U101G | ≤ -4.2 |
| A47G A52G U56A C87G | ≤ -4.2 |
| A47C U55G | 0.183 |
| U45G U61G C87G G88C C118G C129G G141A | ≤ -4.2 |
| U45G C87U U101C | -3.99 |
| U45G C54A C87G A121U C123G | ≤ -4.2 |
| G46A U55G C79A C85G A97U | ≤ -4.2 |
| A47C G62U C99G G143U | ≤ -4.2 |
| A47C C93A A106U U109G | ≤ -4.2 |
| G46C U61G U78A C93A | ≤ -4.2 |
| U45G C85G | -3.44 |
| A47C C57U G67C C69A A91U C149U | ≤ -4.2 |
| A47U C54U C114U | -2.94 |
| G46A G50C U56A G83U A147C | ≤ -4.2 |

| Variant | polymerase ribozyme fitness (log ratio) |
| --- | --- |
| U45G C114U | -2.91 |
| G46C C87U A98G G117U A142U | ≤ -4.2 |
| A47C A60G C85A | -2.83 |
| G46C G70A C75G A119C | ≤ -4.2 |
| A47C C95U | 0.141 |
| A47C C95U C116A | -0.555 |
| A47C A73U C118A | -3.14 |
| U45G A47G C54U C93G | ≤ -4.2 |
| A47U A49G G141A U145A | ≤ -4.2 |
| A47C C85G U134G | -4.19 |
| A47C C85A C118U | -0.946 |
| U45G C54U A110G | ≤ -4.2 |
| G46A U53A U77A G80A C85A A98U U102C C132G A138G | ≤ -4.2 |
| A47G C99U | 0.0144 |
| A47C A52G G68C A91C | ≤ -4.2 |
| U45G A115G | -1.98 |
| A47G C93G U144A | -2.58 |
| A47G G92C C114U | -2.53 |
| G46A C63G G67C C85U | ≤ -4.2 |
| G46A G68C A89C G124A | ≤ -4.2 |
| G46A C76A G86U A121U U144G | ≤ -4.2 |
| A47C G74U A107G A122U | ≤ -4.2 |
| U45G G83A | -0.848 |
| A47U A89G C116U G133U A138C | -4.12 |

| Variant | polymerase ribozyme fitness (log ratio) |
| --- | --- |
| G46A C85A | -2.16 |
| A47G U55G | 0.325 |
| A47C G48A G124U | -3.59 |
| A47C G83U | -1.01 |
| A47U G50A G84U A98U | -3.28 |
| A47G G50U G94U G141C | -2.22 |
| U45G A47C A142G | -3.91 |
| A47C A49G G83A G140A | ≤ -4.2 |
| A47G C87U | 0.257 |
| U45G A52G U82C U101G C131U | -3.32 |
| A47C G59C G86A | ≤ -4.2 |
| U45G G59A | -0.523 |
| A47G C51U C87U | -0.414 |
| A47C C96U A107U | -3.57 |
| A47C G92U C105U C131G | ≤ -4.2 |
| A47C U102G A115U A142G U148A | ≤ -4.2 |
| A47C C57A G94A U144G | 1.12 |
| G46A C99U G141A | ≤ -4.2 |
| A47G A49U G50C C57U A107C A150C | ≤ -4.2 |
| A47U A73U A147C | -2.13 |
| A47C U56A C87A C93G A121U C132G G143A U144C | ≤ -4.2 |
| A47C A60U G80U C93U | ≤ -4.2 |
| A47U A64G G67A | ≤ -4.2 |
| A47G G50A C85U C99A G124C U127G | ≤ -4.2 |

| Variant | polymerase ribozyme fitness (log ratio) |
| --- | --- |
| A47G G74A U101G A121C U145C | ≤ -4.2 |
| G46C A66C C85U C93G C118U | ≤ -4.2 |
| G46C G50C A89G A107C G152C | ≤ -4.2 |
| G46A G59C C76U C96U C116U | ≤ -4.2 |
| G46A U53G | -3.49 |
| A47U G50C A121U | -3.92 |
| A47G U102C A142C C149U | ≤ -4.2 |
| G46U C99A | -3.99 |
| U45C G48C C99A G143A U148C | ≤ -4.2 |
| A47G C123U C129G | -3.23 |
| A47U A52U C93A C125G U135C | ≤ -4.2 |
| U45G C76A C129G U134G | ≤ -4.2 |
| G46A G58A G83C | -1.17 |
| A47U C54U C93U | -2.08 |
| A47U C54A | -1.93 |
| A47G A49C A52G G81U G83C U134A | ≤ -4.2 |
| U45G G88A | -4.02 |
| G46C A47G G71A C85U G88C | ≤ -4.2 |
| A47U G50C | -3.22 |
| G46U C93U | -0.878 |
| A47U G86U U134A | -3.84 |
| G46A A47G G48A G50C G136A | ≤ -4.2 |
| A47C C129G | -4.19 |
| G46U A52C A89U G94A G133C | ≤ -4.2 |

| Variant | polymerase ribozyme fitness (log ratio) |
| --- | --- |
| G46C A49U C72U C116U | ≤ -4.2 |
| A47C C63U C79A G80A G86C U102C | ≤ -4.2 |
| A47C G141A | -1.5 |
| U45G G84U | -1.97 |
| A47C G58C A64U U104C A107G | ≤ -4.2 |
| A47G G86U G88C U109G | ≤ -4.2 |
| G46A U53A G59A A66C U90C A91U C108G G133C | ≤ -4.2 |
| A47C A73G | -0.266 |
| G46A C96U U101A | -2.59 |
| A47U C51A G58A G80A G83A C103U | ≤ -4.2 |
| A47G G84U A106G | -2.24 |
| G46U A120U | -0.29 |
| A47G U55A A91G | -2.78 |
| G46A C69A | -3.61 |
| A47G G84U U135A | -2.45 |
| G46C U55G G58U | -0.983 |
| G46A C129U | -3.61 |
| G46C G50U G68A C76A C85U U130G | ≤ -4.2 |
| A47G C96U G124C | -1.06 |
| A47G C123G U151C | -4.15 |
| G46C C96A C123G | -1.48 |
| A47G G83C U134A G140U | -4.17 |
| A47G U53A | -0.375 |
| G46C G58C G83C C125A | -4.17 |

| Variant | polymerase ribozyme fitness (log ratio) |
| --- | --- |
| A47C G84A | -0.485 |
| A47G U55A C63G G84C | ≤ -4.2 |
| G46A G84A A119C G136A A150G | -3.68 |
| A47C C54U G84A U109G | -1.84 |
| G46A C54G G86U G117A A119G A137G G141C G143U | ≤ -4.2 |
| U45G U56A | 0.0147 |
| A47G C114U | -2.4 |
| G46U G59A A60C | -2.54 |
| U45G G68U | ≤ -4.2 |
| G46A G67A G84U A97G C99U C116U | ≤ -4.2 |
| A47C C57A G84C G86U U146C C149U | ≤ -4.2 |
| U45G G48U A60U C72A G80C C96A U102G | ≤ -4.2 |
| G46U A52G C93G | -4.03 |
| A47G G81C G92C C95A A142G | -2.95 |
| A47C A49G | -0.809 |
| A47G C87U C99U | -1.24 |
| G46A C76A C96U G141C | ≤ -4.2 |
| A47C G50C | -4.1 |
| A47C A60G C93A C95A C96U U139G | ≤ -4.2 |
| U45G G80C A106G A119U A121U G124C G133U | ≤ -4.2 |
| A47C A66U C103G | ≤ -4.2 |
| A47C U55A A60G | -0.228 |
| A47U G62C G84U | -3.86 |
| G46U C69G | -0.758 |

| Variant | polymerase ribozyme fitness (log ratio) |
| --- | --- |
| G46U G68C G94C | ≤ -4.2 |
| U45G G59C C99A U151G | ≤ -4.2 |
| G46U C54U A73U | -3.31 |
| U45C G70C A91G C99U G136C | ≤ -4.2 |
| G46A C87U A89C G94A A113C | ≤ -4.2 |
| A47C C87U | -0.109 |
| A47C G48C G74C U78G G143U | ≤ -4.2 |
| G46A C85A G136U G140U A142G | ≤ -4.2 |
| A47G C87A G126A | ≤ -4.2 |
| A47G A49U C103G | ≤ -4.2 |
| A47U C76U | -0.942 |
| A47C U127C | -1.6 |
| A47U C85A U139G | -1.24 |
| G46U C85G | -1.84 |
| A47G U53A C57A G84U C99U U134G G141C | ≤ -4.2 |
| A47C C57A G84U A89C | -1.5 |
| U45G C87U U139A | ≤ -4.2 |
| U45G C87U | -1.32 |
| G46C C105G | 1.29 |
| G46C C54U C95U C116U C118G | -2.25 |
| A47U G92U | -0.338 |
| A47C C51U G58C G70A C96U A106U U151C | ≤ -4.2 |
| A47G U78A G81U G86C U127G A138C | ≤ -4.2 |
